Consider two molecules from patent US20140170136A1 (NVIP, published 2014).

One experiment concerns the target T1, murine NGF (mouse, UniProt P01139 122-241).
T1 construct: Coated on the ELISA plate; also called mouse NGF
The experiment is described as follows: ELISA: CHO supernatant on NGF, goat anti-equine IgG-HRP, OD450, against mock supernatant. Here is the method: Equinised heavy and light chain cDNAs were transfected into CHO cells, the supernatants harvested and reacted in ELISA format with either equine or murine NGF. Following incubation and wash steps, the bound equine antibody was detected by reactivity with a goat-anti equine IgG specific polyclonal antibody linked to horseradish peroxidase (HRP) and developed using TMB. The optical density of the resulting product was measured at 450 nm and compared with that from mock empty vector transfected supernatant (denoted as “Mock” in FIG. 1). The results are shown in the graph of FIG. 1. Binding to mouse NGF is shown for the HC2 (IgG2 constant domain) equinised antibody (termed eqN-HC2+eqN-kLC-1). In the second part of the graph, binding of the eqN-HC2+eqN-kLC-1 antibody comprising the eqN-kLC-1 light chain and the eqN-HC2 (IgG2) constant chain to equine NGF is shown.
In general terms: An ELISA detects its analyte on a solid surface through an enzyme-linked reagent.

For experiment [1], the target named is T2, complement C1q (from human serum) (human, UniProt P02745 23-245; P02746 28-253; P02747 29-245).
T2 construct: mature; Native C1q in human serum diluted 1/100
The experiment is described as follows: ELISA: antibody captured on NGF-coated plate, human serum 1/100, bound C1q detected with anti-C1q-HRP, OD450. Here is the method:
Protein A purified transfectant supernatants from Example 2 were incubated with plates coated with 0.1 ng/mL NGF to capture the antibodies. The plates were washed and then incubated with human serum and bound complement C1q was measured by binding of anti-human C1q polyclonal antibody HRP and developed as above. The binding of C1q to antigen-captured “eqN-HC2+eqN-kLC-1” was compared to a human anti-NGF MAb with human IgG1 Fc domain as positive control and an IgG4 variant as negative control.
Plates were coated with 100 μl/well of 5 μg/ml mouse NGF and blocked with 5% BSA/PBS. Coated wells were incubated for 1 hour at room temperature with cell culture supernatants, containing recombinant equine anti-NGF IgG, diluted in PBS/1% BSA (100 μl/well). The plates were washed and incubated for 1 hour at room temperature with 100 μl/well of human serum diluted 1/100 in veronal buffered saline containing 0.5 mM MgCl₂, 2 mM CaCl2, 0.05% Tween-20, 0.1% gelatin and 0.5% BSA. After washing, plates were incubated with 100 μl of a 1/800 dilution of sheep anti-C1q-HRP (Serotec) in PBS/1% BSA. After washing, plates were developed by the addition of 100 μl TMB substrate (Thermo Scientific). Development was stopped by the addition of 100 μl of 2N H₂SO₄ and absorbance read at 450 nm.

Another experiment addresses T3, Protein A (UniProt P38507 37-327).
T3 construct: Column resin
The experiment is described as follows: Protein A affinity chromatography of CHO supernatant; antibody in fractions measured by quantitative NGF ELISA.

T2 sequence (P02745 23-245, chain 1 of 3): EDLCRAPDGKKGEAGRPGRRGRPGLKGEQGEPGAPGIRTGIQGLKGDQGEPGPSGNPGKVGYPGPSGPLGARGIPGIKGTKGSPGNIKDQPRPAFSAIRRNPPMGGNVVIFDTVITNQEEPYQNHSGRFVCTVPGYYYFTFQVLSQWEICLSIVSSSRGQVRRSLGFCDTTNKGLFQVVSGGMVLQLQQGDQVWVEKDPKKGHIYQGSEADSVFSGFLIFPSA
T2 sequence (P02746 28-253, chain 2 of 3): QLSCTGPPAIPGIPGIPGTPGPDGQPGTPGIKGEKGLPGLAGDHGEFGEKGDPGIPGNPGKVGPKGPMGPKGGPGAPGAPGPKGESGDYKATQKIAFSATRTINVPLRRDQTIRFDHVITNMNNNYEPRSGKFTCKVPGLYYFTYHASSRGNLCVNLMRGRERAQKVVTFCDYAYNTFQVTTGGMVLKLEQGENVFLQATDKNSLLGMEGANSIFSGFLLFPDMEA
T2 sequence (P02747 29-245, chain 3 of 3): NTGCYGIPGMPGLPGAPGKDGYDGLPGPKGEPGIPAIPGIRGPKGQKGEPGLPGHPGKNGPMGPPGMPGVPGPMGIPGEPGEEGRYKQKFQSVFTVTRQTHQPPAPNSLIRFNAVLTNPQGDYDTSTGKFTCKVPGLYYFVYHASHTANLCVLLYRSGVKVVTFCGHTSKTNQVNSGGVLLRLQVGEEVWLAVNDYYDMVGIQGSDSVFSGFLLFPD
T1 sequence (P01139 122-241 limits assumed): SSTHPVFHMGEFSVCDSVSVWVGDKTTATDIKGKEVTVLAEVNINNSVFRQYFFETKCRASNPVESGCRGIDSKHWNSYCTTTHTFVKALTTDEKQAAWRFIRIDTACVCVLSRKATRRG

B1: eqN-HC2+eqN-kLC-1 (equinised αD11 anti-NGF antibody comprising the eqN-kLC-1 light chain and the eqN-HC2 (IgG2) heavy chain) (antibody)
heavy: QVQLKESGPGLVNPSQTLSLTCTVSGFSLTNNNVNWVRQAPGKGLEWVGGVWAGGATDYNSALKSRATITRDTSKSQVFLQMNSLTSEDTAVYYCARDGGYSSSTLYAMDAWGQGILVTVSSASTTAPKYFQLTPSCGITSDATVALGCLVSDYYPEPVTVSWNSGALTSGVHTFPSVLQSSGLYALSSMVTVPASTWTSETYICNVAHPASSTKVDKRIPPCVLSAEGVIPIPSVPKPQCPPYTHSKFLGGPSVFIFPPNPKDALMISRTPVVTCVVVNLSDQYPDVQFSWYVDNTEVHSAITKQREAQFNSTYRVVSVLPIQHQDWLSGKEFKCSVTNVGVPQPISRAISRGKGPSRVPQVYVLPPHPDELAKSKVSVTCLVKDFYPPDISVEWQSNRWPELEGKYSTTPAQLDGDGSYFLYSKLSLETSRWQQVESFTCAVMHEALHNHFTKTDISESLGK
light: DIVMTQSPASLSASLGETVTIECRASEDIYNALAWYQQKPGQSPKLLIYNTDTLHTGVPSRFSGSGSGTDYSLTINSLQSEDVASYFCQHYFHYPRTFGQGTKLELKRDDAKPSAFIFPPSSEELSSGSASVVCLVYGFYPSGATINWKVDGLAKTSSFHSSLTEQDSKDNTYSLSSTLTLPKADYEAHNVYACEVSHKTLSSPLVKSFKRQDC
notes: Tested as CHO transfectant supernatant or after Protein A purification; also called HC2 (IgG2 constant domain) equinised antibody; equinised HC2 antibody
Turning to B1, the binding result with murine NGF is listed as “binds”; in experiment [1] it was “no binding”.

B2: HC6 variant of equinised αD11 (equinised anti-NGF antibody with eqN-HC6 heavy chain and equine kappa light chain) (antibody)
heavy: QVQLKESGPGLVNPSQTLSLTCTVSGFSLTNNNVNWVRQAPGKGLEWVGGVWAGGATDYNSALKSRATITRDTSKSQVFLQMNSLTSEDTAVYYCARDGGYSSSTLYAMDAWGQGILVTVSSASTTAPKVFQLASHSAGTSDSTVALGCLVSSYFPEPVTVSWNSGALTSGVHTFPSVRQSSGLYSLSSMVTVPASSLKSQTYICNVAHPASSTKVDKRIVIKEPCCCPKCPGRPSVFIFPPNPKDTLMISRTPEVTCVVVDVSQENPDVKFNWYVDGVEAHTATTKAKEKQDNSTYRVVSVLPIQHQDWRRGKEFKCKVNNRALPAPVERTITKAKGELQDPKVYILAPHREEVTKNTVSVTCLVKDFYPPDINVEWQSNEEPEPEVKYSTTPAQLDGDGSYFLYSKLTVETDRWEQGESFTCVVMHEAIRHTYRQKSITNFPGK
light: DIVMTQSPASLSASLGETVTIECRASEDIYNALAWYQQKPGQSPKLLIYNTDTLHTGVPSRFSGSGSGTDYSLTINSLQSEDVASYFCQHYFHYPRTFGQGTKLELKRDDAKPSAFIFPPSSEELSSGSASVVCLVYGFYPSGATINWKVDGLAKTSSFHSSLTEQDSKDNTYSLSSTLTLPKADYEAHNVYACEVSHKTLSSPLVKSFKRQDC
notes: also called HC6 antibody; type 6 (HC6) antibody
Take B2: the binding result with Protein A is on record as “no binding”.
